The nature of data set [1]: SPR interaction of streptavidin mutants with Compound C (Comparative Example 2). The format is binding. Conditions: Compound C 1.8-1800 nM; protein immobilized via His-Tag. The text has this:
Using the purified two […] core streptavidin mutants (cSA-Y43A, cSA-S45A) described above, and purified V2122 protein, interaction with Compound C was investigated by surface plasmon resonance (SPR). More specifically, using Biacore T200 (GE Healthcare BioScience Corp.) as a measuring instrument, and Sensor Chip NTA (GE Healthcare BioScience Corp.) as a sensor chip, the protein was immobilized on the sensor chip by way of His-Tag having been fused to the core protein. The running buffer was prepared using HBS-P(+), as described in the manual. A dilution series of Compound was prepared by using the running buffer in seven steps of 1.8 nM, 9 nM, 18 nM, 90 nM, 180 nM, 900 nM and 1800 nM, to obtain data.

The nature of data set [2]: Immunogenicity testing, antibody in serum analyzed by SPR. It counts as in vivo, crab-eating monkey (Macaca fascicularis). The conditions noted are these: 1 mg purified protein administered three times (Day 0, 21, 42); four monkeys. How it is done:
Immunogenicity testing was conducted using four crab-eating monkeys. One milligram of the purified protein was administered three times. Before administration, blood was collected for preparing a negative control serum, followed by three times of administration of 1 mg each of purified protein. More specifically, letting the first day of administration of Day 0, the second administration fell on Day 21, and the third administration fell on Day 42. For V2122, blood was collected on Days 7, 14, 28 and 35 to prepare serum samples, and for the other, blood was collected on Days 7, 14, 28, 35, 49 and 56 to prepare serum samples.
Antibody against V2122 in the serum samples was analyzed by surface plasmon resonance (SPR). More specifically, Biacore T200 (GE Healthcare BioScience Corp.) was used as a measuring instrument, which was operated in the mode using immunogenicity package. The sensor chip was CM5. As instructed by the manual, V2122 protein (10 μg/mL) was immobilized on the CM5 sensor chip using an amine coupling kit. Serum was diluted ten-fold with a running buffer (HBS-EP, GE Healthcare BioScience Corp.) for the interaction analysis. More specifically, the serum diluted ten-fold was loaded into the running buffer at a flow rate of 10 μL/min for 5 minutes. The obtained sensorgram was analyzed using an analytical software named Biacore T200 Evaluation Software.

Data set [3] can be described thus: SPR interaction of streptavidin mutants with biotin (Comparative Example 1). It counts as binding. Conditions: biotin 1.8-1800 nM; protein immobilized via His-Tag. How it is done:
More specifically, using Biacore T200 (GE Healthcare BioScience Corp.) as a measuring instrument, and Sensor Chip NTA (GE Healthcare BioScience Corp.) as a sensor chip, the protein was immobilized on the sensor chip by way of His-Tag having been fused to the core protein. The running buffer was prepared using HBS-P(+), as described in the manual. A dilution series of Compound was prepared by using the running buffer in seven steps of 1.8 nM, 9 nM, 18 nM, 90 nM, 180 nM, 900 nM and 1800 nM, to obtain data.

Another data set concerns DLD1 tumor. Kind of data set: In vivo imaging, DLD1 heterotransplantation model. More on the design: species or system nude mice. Conditions: 25, 50, 100 μg intravenously, pre-labeled with Psyche F-IRDye 800; imaging 2, 24, 48 hours. Here is the method:
The thus purified anti-epiregulin scFv-V2122 was mixed with Psyche F-IRDye 800 (Compound 44 in Example) dissolved in DMSO (final concentration was ten-fold molar concentration), and the mixture was incubated on ice for 10 minutes. The buffer was then replaced with Japanese Pharmacopoeia physiological saline (Otsuka Pharmaceutical Co., Ltd.) using Zeba Spin Desalting Column (Thermo Fisher Scientific Inc.) and was stored under cooling. Epiregulin IgG was labeled using ICG Labeling Kit-NH2 (Dojindo Laboratories).
Suspension liquid of human colorectal cancer-derived DLD1 cell and Matrigel Matrix (Corning) were mixed in a ratio of 1:1 (5×10^6 cells/0.1 mL), and 0.1 mL of the mixed liquid was administered subcutaneously in the left side of 5 to 6-week-old female nude mice (Sankyo Labo Service Corporation, Inc.). The mice were bred for several weeks to produce tumor. One week before imaging, the feed was switched to a low fluorescence feed (iVid #1, Oriental Yeast Co., Ltd.) and the breeding was continued. […]
Anti-epiregulin scFv-V2122 antibody (25 μg, 50 μg, 100 μg) preliminarily labeled with fluorescence by allowing it to react with Psyche F-IRDye 800 (Compound 44 in Example), or fluorescent-labeled epiregulin IgG (50 μg) was intravenously administered to nude mice having established DLD1 tumor. […]

The subject of data set [4] is DLD1 cells having epiregulin expressed. Nature of the data set: FACS analysis of cell surface binding potential. The conditions noted are these: 0, 0.5, 5, 50 nM, on ice 30 minutes. It counts as cell-based, human. How it is done: Cell surface binding potential was determined by FACS, using labeled antibodies that are anti-epiregulin scFv-V2122-FITC, epiregulin IgG-FITC and anti-epiregulin scFv-FITC. More specifically, dilute solutions of the labeled antibodies having concentrations of 0 nM, 0.5 nM, 5 nM and 50 nM were allowed to react on ice for 30 minutes with DLD1 cells (1×10^6 cells/mL, […]) having epiregulin expressed therein, and then fluorescence was measured using flow cytometer guava easyCyte 5. The measurement followed the usage and dosage instructions given in the manual of the instrument.
In general terms: In flow cytometry, cells or beads pass a laser one at a time.

A further data set relates to DLD1 cells. Nature of the data set: Cell staining and analysis of internalization. The conditions noted are these: for staining of the surface of the cell membrane: DLD1, 25 nM, 50 nM and 100 nM. The format is cell-based, human. Here is the method: Human colorectal cancer-derived DLD1 cells, used for cell staining, were cultured in a complete medium RPNI1640 (containing 10% FBS), and seeded in uClear 96-well plate (Greiner) in a density of 1×10^4 cells/well, two days before the assay. In the cell staining, first the medium was replaced with a complete medium added with Hoechst 33342 so as to adjust the concentration to 1 μM, and 15 minutes after, each of anti-epiregulin scFv-V2122-FITC, epiregulin IgG-FITC and anti-epiregulin scFv-FITC was added to the individual wells so as to adjust the concentration to 25 nM, 50 nM and 100 nM.
Binding of antibody to the cell surface, and internalization were analyzed using IN Cell Analyzer 6000 (GE Healthcare BioScience Corp.), and recorded by time lapse imaging at 5 minute intervals.

Data set [5] concerns the target T1, Pro-EPR-mFc (extracellular domain of epiregulin fused with murine Fc region) (Homo sapiens, UniProt O14944).
T1 construct: made in house; host or cells: Expi293F cells, pcDNA3.4 vector
Nature of the data set: SPR antigen binding potential (Biacore T200). Conditions: for Kd: SPR kinetics assay, Pro-EPR-mFc captured on CM5, read-out: affinity to the antigen after FITC labeling. The text has this: Next, in order to confirm whether the labeling reduced the binding potential or not, the antigen binding potential of anti-epiregulin scFv-V2122-FITC was confirmed by SPR (Biacore T200). More specifically, protein (Pro-EPR-mFc) obtained by fusing the extracellular domain of epiregulin which functions as a ligand with murine Fe region is captured on the sensor chip CM5 having anti-Murine IgG antibody immobilized thereon, and then eluted for kinetics assay with an analyte composed of a two-fold dilution series prepared by diluting a 20 nM anti-epiregulin scFv-V2122-FITC solution into nine steps (FIG. 14). […] Also epiregulin IgG and anti-epiregulin scFv protein were investigated in the binding test in the same way as described above, using a two-fold dilution series prepared by diluting a 300 nM solution into nine steps (FIG. 14). Data was analyzed using Biacore evaluation software.
For orientation: SPR reads the build-up and loss of mass on a sensor chip optically.

Data on four molecules can be found in patent US11161884B2 (SAVID THERAPEUTICS INC., priority 2014, dated 2021).

T1 sequence (O14944 with tags, fused parts or gaps): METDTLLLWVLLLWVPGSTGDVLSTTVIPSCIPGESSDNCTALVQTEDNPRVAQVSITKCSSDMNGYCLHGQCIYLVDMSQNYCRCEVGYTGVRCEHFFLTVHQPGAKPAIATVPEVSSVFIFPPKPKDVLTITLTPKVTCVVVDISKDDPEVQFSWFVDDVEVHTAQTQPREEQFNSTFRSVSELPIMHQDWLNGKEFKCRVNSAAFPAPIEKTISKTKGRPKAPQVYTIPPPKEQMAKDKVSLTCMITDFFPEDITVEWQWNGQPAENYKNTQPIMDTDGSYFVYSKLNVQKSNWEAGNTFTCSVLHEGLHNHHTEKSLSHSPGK

B1: V2122: glycine mutant (N49G) of V212 streptavidin mutant; amino acid sequence SEQ ID NO: 4 (protein)
chain: AEAGITGTWSDQLGDTFIVTAGADGALTGTYENAVGGAESRYVLTGRYDSAPATDGSGTALGWTVAWKNNSKNAHSATTWSGQYVGGADAKINTQWLLTSGTTNANAWKSTLVGHDTFTKVKPSAAS
As to B1, the “interaction with Compound C (sensorgram)” value in data set [1] is “specific binding showing only an extremely slow dissociation”. The immunogenicity result in data set [2] was “low as compared with the immunogenicity of the wild-type streptavidin and LISA314”. For the same molecule, in data set [3], the “interaction with biotin (sensorgram)” value is “absence of specific binding”.

B2: anti-epiregulin scFv-V2122: fusion protein formed by anti-epiregulin scFv and V2122; SEQ ID NO: 30 (protein)
chain: MKYLLPTAAAGLLLLAAQPAMAQVQLQQSGAEVKKPGASVKVSCKASGFNIKDTYMHWVRQAPEQGLEWMGRIDPLNDKTKYDPKFQGRVTITADTSTNTAYLELSSLTSEDTAVYYCARGGGDPVFVYWGQGTLVTVSASSGGGGSGGGGSGGGGSGGGGSGGDIQMTQSPSSLSASVGDRVTITCKASQDINKYLAWYQHKPGQAPRLLIHYTSTLHPGIPSRFSGSGSGTDFTFSISSLQPEDIATYYCLQYDNLRTFGGGTKVEIKRTSGGGGSGGGGAEAGITGTWSDQLGDTFIVTAGADGALTGTYENAVGGAESRYVLTGRYDSAPATDGSGTALGWTVAWKNNSKNAHSATTWSGQYVGGADAKINTQWLLTSGTTNANAWKSTLVGHDTFTKVKPSAASHHHHHH
With B2, the accumulation in tumor entry in the data set with DLD1 tumor is “accumulate in the tumor of the model mice earlier (2 hours after administration) than the labeled IgG”.

B3: anti-epiregulin scFv-FITC: FITC-labeled anti-epiregulin scFv protein (SEQ ID NO: 22) (protein)
scFv: MKYLLPTAAAGLLLLAAQPAMAQVQLQQSGAEVKKPGASVKVSCKASGFNIKDTYMHWVRQAPEQGLEWMGRIDPLNDKTKYDPKFQGRVTITADTSTNTAYLELSSLTSEDTAVYYCARGGGDPVFVYWGQGTLVTVSASSGGGGSGGGGSGGGGSGGGGSGGDIQMTQSPSSLSASVGDRVTITCKASQDINKYLAWYQHKPGQAPRLLIHYTSTLHPGIPSRFSGSGSGTDFTFSISSLQPEDIATYYCLQYDNLRTFGGGTKVEIKRTSHHHHHH
modifications: FITC label
As for B3, the “cell surface binding potential by FACS” value in data set [4] is recorded as “level of binding potential lower than those shown by the former two”. For the same molecule, the “staining of the surface of the cell membrane” value with DLD1 cells is “staining of the surface of the cell membrane was observed”. In addition, the Kd in data set [5] turned out to be 120 nM.

B4: anti-epiregulin scFv-V2122-FITC: FITC-labeled product of purified anti-epiregulin scFv-V2122 (protein)
scFv: QVQLQQSGAEVKKPGASVKVSCKASGFNIKDTYMHWVRQAPEQGLEWMGRIDPLNDKTKYDPKFQGRVTITADTSTNTAYLELSSLTSEDTAVYYCARGGGDPVFVYWGQGTLVTVSASSGGGGSGGGGSGGGGSGGGGSGGDIQMTQSPSSLSASVGDRVTITCKASQDINKYLAWYQHKPGQAPRLLIHYTSTLHPGIPSRFSGSGSGTDFTFSISSLQPEDIATYYCLQYDNLRTFGGGTKVEIKRTSGGGGSGGGGAEAGITGTWSDQLGDTFIVTAGADGALTGTYENAVGGAESRYVLTGRYDSAPATDGSGTALGWTVAWKNNSKNAHSATTWSGQYVGGADAKINTQWLLTSGTTNANAWKSTLVGHDTFTKVKPSAASHHHHHH
As for B4, in data set [4], the “cell surface binding potential by FACS” value was “equivalent levels of binding potential”. Also, the “time at which internalization began to be observed after addition of antibody” value in the data set on DLD1 cells (DLD1) was “approximately 10 minutes”. For the same molecule, the “staining of the surface of the cell membrane” value in the data set on DLD1 cells was “staining of the surface of the cell membrane was observed”. For the same molecule, in the data set with DLD1 cells (DLD1, sixty-five minutes after addition), the “migration of fluorescence into the cytoplasm” value is “almost entire part of fluorescence was found to migrate into the cytoplasm”. Besides, in the data set on DLD1 cells (DLD1, time lapse imaging at 5 minute intervals), the internalization result is recorded as “distinct internalization was observed”. For the same molecule, in data set [5], the “affinity relative to epiregulin IgG-FITC and anti-epiregulin scFv-FITC” value is listed as 100 to 1000 times; the Kd is 0.23 nM.
